Common to all, as to assay type: biochemical
Data set [1] is described as follows: Oxidation of valencene by P450cam mutants, product proportions by GC. The conditions noted are these: substrate Valencene. The procedure:
(§1) For simple screening the substrate can be added to culture and the incubation continued. However, due to impurities from the culture media the cells were generally washed twice with 0.5 vol. of buffer P, (KH2PO4 6.4 g, K2HPO4.3H2O 25.8 g, H2O to 4 liters, pH 7.4) and resuspended in 0.25 vol. oxygen saturated buffer P containing 24 mM glucose. Substrate was added to 1 mM and the incubation continued at 30° C. The reaction was allowed to run for 24 hours with periodic additions of substrate and glucose.
(§2) The reaction was analysed by extracting 1 ml of the incubation mixture with 250 μl of ethylacetate. After centrifuging in a microcentrifuge at 13,000 g for 2 minutes, 2 μl of the organic extract was injected onto a 0.25 mm×30 m DB-1 gas chromatography column in a Fisons GC 8000 series gas chromatograph. The samples were carried through the column using helium carrier gas and the compounds present were detected using a flame ionisation detector.

Data set [2] in a line: Oxidation of α-pinene by P450cam mutants, product proportions by GC. The conditions noted are these: substrate α-Pinene. The protocol: as §1, §2
Data set [3] can be described thus: Oxidation of L-limonene by P450cam mutants, product proportions by GC. The following applies: substrate L-Limonene. The protocol:
as §1, §2

Where [4] appears, read: single oxygen insertion products only, 30 m DB-1 GC column.

B1: Wild-type: Wild-type P450cam haem monooxygenase from Pseudomonas putida, sequence in Table 7 (protein, UniProt P00183 2-415, looked up)
Camphor 5-monooxygenase: TTETIQSNANLAPLPPHVPEHLVFDFDMYNPSNLSAGVQEAWAVLQESNVPDLVWTRCNGGHWIATRGQLIREAYEDYRHFSSECPFIPREAGEAYDFIPTSMDPPEQRQFRALANQVVGMPVVDKLENRIQELACSLIESLRPQGQCNFTEDYAEPFPIRIFMLLAGLPEEDIPHLKYLTDQMTRPDGSMTFAEAKEALYDYLIPIIEQRRQKPGTDAISIVANGQVNGRPITSDEAKRMCGLLLVGGLDTVVNFLSFSMEFLAKSPEHRQELIERPERIPAACEELLRRFSLVADGRILTSDYEFHGVQLKKGDQILLPQMLSGLDERENACPMHVDFSRQKVSHTTFGHGSHLCLGQHLARREIIVTLKEWLTRIPDFSIAPGAQIQHKSGIVSGVQALPLVWDPATTKAV
Turning to B1, the Comments result in data set [1] is “Many small peaks”. In addition, in data set [2], the “Approximate proportion of product Pinene oxide” value amounted to 10%, the “Approximate proportion of product Verbenol” value was determined as 30%, the “Approximate proportion of product Verbenone” value is 10% and the “Remaining other products (Comments)” value is given as “Remaining 50% other products”. In data set [3], the Comments result is given as “Very small quantities”. Moreover, in data set [3] (setting [4]), the “Approximate proportion of Product at 6.10–6.20 min” value was 30% and the “Approximate proportion of product Isopiperitenol (6.60–6.70 min)” value worked out at 70%.

(Values after patent publication US7211420B1, “Process for oxidizing terpenes” (ISIS Innovation Limited, priority 1998, dated 2007).)
